Assay [1] has as its target GST-PKBα (full length human protein kinase Bα with N-terminal glutathione S-transferase, from unstimulated 293 cells) (human) [GST: P08515]. Nature of the assay: cell-based or functional assay.
The target of assay [2] is HA-PKBα (haemagglutinin epitope-tagged human PKBα expressed in 293 cells) (human) (UniProt P31749). In words: cell-based or functional assay.
Sequence of HA-PKBα (haemagglutinin epitope-tagged human PKBα expressed in 293 cells) (human) (P31749 whole entry): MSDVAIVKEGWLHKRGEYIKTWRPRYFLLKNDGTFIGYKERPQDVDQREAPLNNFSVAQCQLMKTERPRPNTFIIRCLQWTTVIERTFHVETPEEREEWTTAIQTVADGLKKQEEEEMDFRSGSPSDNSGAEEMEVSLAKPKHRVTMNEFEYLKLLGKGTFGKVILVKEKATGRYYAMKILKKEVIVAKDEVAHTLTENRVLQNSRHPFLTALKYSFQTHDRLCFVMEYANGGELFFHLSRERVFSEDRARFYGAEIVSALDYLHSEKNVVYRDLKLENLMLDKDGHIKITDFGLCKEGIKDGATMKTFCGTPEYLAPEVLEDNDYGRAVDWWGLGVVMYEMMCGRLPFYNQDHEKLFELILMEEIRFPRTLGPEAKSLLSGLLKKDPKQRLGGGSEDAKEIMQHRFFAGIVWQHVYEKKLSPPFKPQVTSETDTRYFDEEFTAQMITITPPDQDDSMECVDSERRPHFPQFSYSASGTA

Sequence of GST-PKBα (full length human protein kinase Bα with N-terminal glutathione S-transferase, from unstimulated 293 cells) (human) [GST: P08515] (P08515 1-218, tags or fused parts left off): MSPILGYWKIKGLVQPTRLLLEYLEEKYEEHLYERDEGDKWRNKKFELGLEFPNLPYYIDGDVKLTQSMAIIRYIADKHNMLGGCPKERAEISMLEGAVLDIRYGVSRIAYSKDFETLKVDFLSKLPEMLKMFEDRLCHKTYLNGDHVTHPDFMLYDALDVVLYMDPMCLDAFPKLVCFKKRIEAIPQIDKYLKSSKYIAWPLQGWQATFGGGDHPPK

For “PtdIns(3,4,5)P3-dependent protein kinase-1 (PDK1) purified from rabbit skeletal muscle (enzyme)”, in assay [1], the fold activation with sn-1,2-dipalmitoyl D-PtdIns(3,4,5)P3 is 5.5 fold; the fold activation with sn-1-stearoyl, 2-arachidonyl D-PtdIns(3,4,5)P3 (lipid 1) came to 13 fold; the fold activation with sn-2-arachidonyl, 3-stearoyl D-PtdIns(3,4,5)P3 was found to be 16 fold; the fold activation with sn-2-arachidonyl, 3-stearoyl L-PtdIns(3,4,5)P3 was 2.3 fold. The same substance returned a fold activation with the L-enantiomer of sn-1-stearoyl, 2-arachidonyl PtdIns(3,4,5)P3 in assay [1] of 1.7 fold.
In assay [2], “Myc-PDK1 (N-terminal Myc epitope-tagged human PDK1, residues 52-556, expressed in 293 cells) (from UniProt O15530 52-556) (enzyme)” displayed a Thr308 phosphorylation of HA-PKBα in unstimulated cotransfected 293 cells, relative to IGF1-stimulated cells with HA-PKBα alone of 70%; an activity of HA-PKBα immunoprecipitated from cotransfected 293 cells after IGF-1 of 70 fold; an activity of HA-PKBα immunoprecipitated from cotransfected, unstimulated 293 cells of 20 fold; a further increase of Thr308 phosphorylation of HA-PKBα in cotransfected cells in response to IGF1 of 4 fold.
